These results are taken from patent US12565517B2, “Cyclic peptide having CTLA-4 inhibitory activity and use thereof” (GeneFrontier Corporation, priority 2019, dated 2026).

In one test the target is T1, CTLA-4 (Homo sapiens, UniProt P16410).
T1 sequence (P16410 36-223): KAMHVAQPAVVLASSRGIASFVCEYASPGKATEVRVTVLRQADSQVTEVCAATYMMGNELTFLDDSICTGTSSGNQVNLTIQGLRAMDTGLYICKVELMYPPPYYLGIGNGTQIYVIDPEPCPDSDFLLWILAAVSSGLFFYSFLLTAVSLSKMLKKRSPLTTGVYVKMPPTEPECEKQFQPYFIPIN
The test is described as follows: ELISA binding of clones after Affinity Maturation with random library (Tables 10, 11). Particulars: CTLA-4 binding ELISA of clones after Affinity Maturation from random (NNS) library; signal/noise ratio; clones of 4th or 5th round. As to the method:
After each round of Affinity Maturation, the cyclic peptide genes were recovered and subcloned into pET-Mal vector (FIG. 2) in the same manner as described above to perform base sequence analysis. For the 94 single colonies analyzed for sequence, E. coli transformants were inoculated into 100 μL of 2×YT medium containing ampicillin (final concentration 50 μg/mL), incubated at 37° C. for 3-5 hours (OD600=0.5-0.8), then added with IPTG (final concentration 0.5 mM) and incubated at 25° C. overnight. 10 μL of E. coli cultured medium was added with 90 μL of PBS and 40 μL of lysis reagent (20 μL BugBuster Protein Extraction Reagent (Novagen), 20 μL Lysozyme solution 2.5 mg/mL) to lyse E. coli cells for 1 hour at room temperature. The cell lysate was added with 40 μL of 12.5% skim milk solution (TBST) and blocked for 1 hour at room temperature. In parallel, antigen protein was immobilized overnight at 4° C. in 384-well plates at 100 ng/20 μL per well, and each well was washed twice with 100 μL/well of TBST, added with 100 μL/well of 5% skim milk solution (TBST) for blocking for 1 hour at room temperature, and washed twice with 100 μL/well of TBST to obtain antigen-immobilized plates. 20 μL/well of blocking-treated E. coli extract was added to the antigen-immobilized plates and gently stirred at room temperature using a plate mixer. After 1 hour, the plates were washed 5 times with 100 μL/well of TBST, 20 μL/well of anti-FLAG M2-HRP conjugate (1:2000 dilution, Sigma) was added and gently stirred on a plate mixer for 1 hour at room temperature. The plates were washed 5 times with 100 μL/well of TBST, and binding of cyclic peptides to the antigen was detected by 20 μL/well of chromogenic substrate (0.4 mg/mL 3,3′,5,5′-Tetramethyl-benzidine, 0.01% hydrogen peroxide). After 15 minutes of reaction at room temperature, the reaction was stopped with 20 μL/well of 2N HCl, and absorbance at 450 nm was measured using a plate reader (infinite F200: TECAN) (Table 5).
Oligo DNAs of a library were synthesized (see below), in which amino acid residues (positions 1, 4, 8, 10, +1 and +2) (corresponding to X1, […], X8, X10, X+1 and X+2) other than those essential or advantageous for CTLA-4 binding (2H, 3P, 5L, 6P, 7I, 9S, 11H, 12F) identified by alanine scanning were randomized (NNS).
Affinity Maturation was performed in the same manner as described above. The amount of biotinylated CTLA-4 immobilized on the magnetic beads was 10 pmol in the 1st round, 2 pmol in the 2nd round, and 1 pmol in the 3nd-5th rounds, respectively. The washing period was 2 hours for the 1st round, 19 hours for the 2nd round, 67 hours for the 3nd round, 140 hours for the 4th round, and 340 hours for the 5th round. Washing frequency was 1 time (2 hours) in the 1st round, 2 times (every 10 hours) in the 2nd round, 6 times (every 10 hours) in the 3rd round, 14 times (every 10 hours) in the 4th round, and 36 times (every 10 hours) in the 5th round.
With “C4m#19-5th4w-NN6-15 (GGCLHPFLPIRSVHFCPF; left off: large carriers; small tags and cut ends)”, the “ELISA S/N(SA)” value amounted to 39.9. As for “C4m3127-4th-NNS6-60 (GGCWHPFLPISSWHFCGL; C4m3127-4th-NNS6-60) [Clone C4m3127-4th-NNS6-60]”, the “ELISA S/N(SA)” value amounted to 11.9. In the case of “C4m3127-4th-NNS6-87 (GGCRHPWLPIVSWHFCSR; C4m3127-4th-NNS6-87) [Clone C4m3127-4th-NNS6-87]”, the “ELISA S/N(SA)” value was determined as 21.4.

As to “C4m#19-5th4w-NN6-4 (GGCRHPYLPIVSRHFCPF; C4m#19-5th4w-NN6-4)”, the “ELISA S/N(SA)” value worked out at 31.6.

Consider “C4m#19-5th4w-NN6-5-1 (GGCWHPYLPIQSLHFCPF; C4m#19-5th4w-NN6-5-1)”, for which the “ELISA S/N(SA)” value is on record as 14.7. On the same count and under the same terms, the value for “C4m#19-5th2w-NNS6-43 (GGCRHPFLPIWSSHFCAA; C4m#19-5th2w-NNS6-43)” was 4.8; that for “C4m#19-5th4w-NN6-25 (GGCLHPVLPIRSRHFCPV; C4m#19-5th4w-NN6-25)” was 38.9; that for “C4m#19-5th2w-NNS6-67 (GGCQHPWLPISSWHFCPR; C4m#19-5th2w-NNS6-67)” was 25.5. The same measure, in the same setting: the value for “C4m#19-5th4w-NN6-65-1 (GGCWHPFLPISSPHFCGR; left off: large carriers; small tags and cut ends)” was 29.5; that for “C4m#19-5th4w-NN6-20 (GGCSHPQLPILSDHFCSA; C4m#19-5th4w-NN6-20)” was 30.6; that for “C4m#19-5th4w-NN6-74 (GGCFHPFLPIYSWHFCAR; C4m#19-5th4w-NN6-74)” was 15.1. Regarding “C4m#19-5th2w-NNS6-8 (GGCRHPFLPIFSLHFCAR; C4m#19-5th2w-NNS6-8)”, the “ELISA S/N(SA)” value was determined as 16.5.

For the substance “C4m#19-5th2w-NNS6-66 (GGCRHPFLPIFSVHFCPF; C4m#19-5th2w-NNS6-66)”, the “ELISA S/N(SA)” value is 4.4.

On to “C4m#19-5th4w-NN6-47 (GGCPHPWLPIFSRHFCPV; C4m#19-5th4w-NN6-47)”, for which the “ELISA S/N(SA)” value amounted to 34.2. As for “C4m#19-5th4w-NN6-50 (GGCKHPVLPIWSWHFCRI; C4m#19-5th4w-NN6-50)”, the “ELISA S/N(SA)” value amounted to 28.1.

For “C4m#19-5th2w-NNS6-14 (GGCWHPFLPIRSYHFCPW; C4m#19-5th2w-NNS6-14)”, the “ELISA S/N(SA)” value came to 34.7. Still for that read-out and setting: next, “C4m#19-5th4w-NN6-9 (GGCFHPYLPIRSWHFCGR; C4m#19-5th4w-NN6-9)”: 28.8; “C4m#19-5th4w-NN6-58 (GGCRHPFLPISSIHFCCI; C4m#19-5th4w-NN6-58)”: 18.7. Still for that read-out and setting: next, “C4m3127-4th-NNS6-20 (GGCLHPFLPILSLHFCPF; C4m3127-4th-NNS6-20) [Clone C4m3127-4th-NNS6-20]”: 4.4; “C4m#19-5th2w-NNS6-68 (GGCLHPWLPIVSCHFCPR; C4m#19-5th2w-NNS6-68)”: 4.6; “C4m#19-5th4w-NN6-61 (GGCPHPMLPIFSVHFCPY; C4m#19-5th4w-NN6-61)”: 5.9. Same read-out and setting: next, “C4m#19-5th4w-NN6-38 (GGCSHPFLPIFSLHFCPV; C4m#19-5th4w-NN6-38)”: 16.6. Turning to “C4m3127-4th-NNS6-83 (GGCRHPFLPIFSKHFCEL; C4m3127-4th-NNS6-83) [Clone C4m3127-4th-NNS6-83]”, the “ELISA S/N(SA)” value came to 20.7. Still for that read-out and setting: next, “C4m#19-5th4w-NN6-94 (GGCLHPFLPIYSLHFCPC; C4m#19-5th4w-NN6-94)”: 5.0; “C4m3127-4th-NNS6-79 (GGCLHPFLPIRSVHFCLR; C4m3127-4th-NNS6-79) [Clone C4m3127-4th-NNS6-79]”: 12.8. The same measure, in the same setting: next, “C4m#19-5th4w-NN6-62 (GGCQHPYLPIWSFHFCPF; C4m#19-5th4w-NN6-62)”: 17.2; “C4m3127-4th-NNS6-7 (GGCRHPFLPIRSPHFCGS; C4m3127-4th-NNS6-7) [Clone C4m3127-4th-NNS6-7]”: 4.7. “C4m#19-5th4w-NN6-7 (GGCRHPFLPIWSWHFCPF; C4m#19-5th4w-NN6-7)”: the “ELISA S/N(SA)” value amounted to 23.0. For “C4m3127-4th-NNS6-30 (GGCWHPCLPILSPHFCPR; C4m3127-4th-NNS6-30) [Clone C4m3127-4th-NNS6-30]”, the “ELISA S/N(SA)” value came out at 7.5. On the same count and under the same terms, next, “C4m#19-5th4w-NN6-59 (GGCLHPHLPIWSLHFCPL; C4m#19-5th4w-NN6-59)”: 27.6. The same measure, in the same setting: the value for “C4m#19-5th4w-NN6-67 (GGCLHPFLPIRSVHFCPR; C4m#19-5th4w-NN6-67)” was 45.4; that for “C4m#19-5th4w-NN6-55-4 (GGCVHPSLPILSVHFCPR; C4m#19-5th4w-NN6-55-4)” was 29.5; that for “C4m#19-5th4w-NN6-90 (GGCRHPWLPIVSYHFCSS; C4m#19-5th4w-NN6-90)” was 21.2. On the same count and under the same terms, next, “C4m#19-5th4w-NN6-19 (GGCRHPYLPIWSIHFCQK; C4m#19-5th4w-NN6-19)”: 29.7. As for “C4m#19-5th4w-NN6-78 (GGCWHPALPIRSWHFCPR; C4m#19-5th4w-NN6-78)”, the “ELISA S/N(SA)” value came to 27.9.

Regarding “C4m#19-5th2w-NNS6-87 (GGCLHPYLPIFSVHFCAL; C4m#19-5th2w-NNS6-87)”, the “ELISA S/N(SA)” value came to 4.5.

“C4m3127-4th-NNS6-26 (GGCAHPALPIWSCHFCPF; C4m3127-4th-NNS6-26) [Clone C4m3127-4th-NNS6-26]”: the “ELISA S/N(SA)” value stood at 7.1. Same read-out and setting: next, “C4m#19-5th2w-NNS6-84 (GGCWHPFLPIVSFHFCPF; C4m#19-5th2w-NNS6-84)”: 6.4.

For “C4m#19-5th2w-NNS6-3 (GGCAHPFLPIFSPHFCPF; C4m#19-5th2w-NNS6-3)”, the “ELISA S/N(SA)” value is reported as 18.4.

On to “C4m#19-5th4w-NN6-2 (GGCWHPHLPIVSSHFCLF; C4m#19-5th4w-NN6-2)”, for which the “ELISA S/N(SA)” value is given as 18.4.

Consider “C4m3127-4th-NNS6-3 (GGCSHPFLPIWSVHFCGQ; C4m3127-4th-NNS6-3) [Clone C4m3127-4th-NNS6-3]”, for which the “ELISA S/N(SA)” value amounted to 10.9. Regarding “C4m#19-5th2w-NNS6-12 (GGCWHPYLPIRSVHFCGR; C4m#19-5th2w-NNS6-12)”, the “ELISA S/N(SA)” value came to 20.4. Same read-out and setting: the value for “C4m#19-5th4w-NN6-69-3 (GGCLHPWLPIVSVHFCAR; C4m#19-5th4w-NN6-69-3)” was 24.9. The same measure, in the same setting: next, “C4m#19-5th2w-NNS6-51 (GGCRHPFLPIVSLHFCPF; C4m#19-5th2w-NNS6-51)”: 15.8; “C4m#19-5th4w-NN6-11 (GGCRHPFLPIWSHHFCVC; C4m#19-5th4w-NN6-11)”: 22.1; “C4m#19-5th4w-NN6-56 (GGCWHPFLPIQSLHFCGV; C4m#19-5th4w-NN6-56)”: 27.1. Consider “C4m#19-5th2w-NNS6-55 (GGCMHPYLPIKSVHFCPL; C4m#19-5th2w-NNS6-55)”, for which the “ELISA S/N(SA)” value was determined as 28.3.

Regarding “C4m#19-5th4w-NN6-71 (GGCPHPWLPIASVHFCPF; C4m#19-5th4w-NN6-71)”, the “ELISA S/N(SA)” value worked out at 17.4. Still for that read-out and setting: next, “C4m#19-5th4w-NN6-86 (GGCAHPVLPIRSLHFCPH; C4m#19-5th4w-NN6-86)”: 19.7.

Staying with this test, now noted: S/N ratio of CTLA-4 binding in ELISA; clones from 4th or 5th round of Affinity Maturation from random (NNS) library.
As to “C4m#19-5th2w-NNS6-93 (GGCFHPFLPIQSRHFCCR; C4m#19-5th2w-NNS6-93)”, the “ELISA S/N(SA)” value was 3.4. Same read-out and setting: the value for “C4m3127-4th-NNS6-37 (GGCWHPVLPIRSIHFCGC; C4m3127-4th-NNS6-37) [Clone C4m3127-4th-NNS6-37]” was 3.5; that for “C4m#19-5th2w-NNS6-41 (GGCWHPVLPIRSDHFCCR; C4m#19-5th2w-NNS6-41)” was 3.1.
